Tested on: MS2 coat protein
Assay: apparent KD of MS2 coat protein; designed switch direction (-1 OFF switch, 1 ON switch): -1; higher = weaker reporter binding
Outline: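 Stalled E. coli RNA polymerase transcribed designed RNA switches on Illumina chips, which were then titrated with SNAP-549-labelled MS2 coat protein, doubling from 0.7 or 1.5 nM to 3 µM. Steps lasted from 0.8–1.5 h at the lowest concentration to 10–20 min at the highest. The apparent KD is each design's median over clusters of curve-fitted normalised fluorescence.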

[1] = input ligand: microRNA oligo, concentration not stated
[2] = Eterna round: R95, input ligand: microRNA oligo, concentration not stated
[3] = Eterna round: R95, input ligand: FMN 200 uM
[4] = Eterna round: R95, input ligand: none

Sequence | apparent KD of MS2 coat protein (input ligand: FMN 200 uM) | apparent KD of MS2 coat protein [1] | apparent KD of MS2 coat protein (input ligand: none) | apparent KD of MS2 coat protein [2] | apparent KD of MS2 coat protein [3] | apparent KD of MS2 coat protein [4]
UACAUGAGGAUCACCCAUGUUUUGUCGUGUAUGGUAUUUAUCUAGGAUAUCAUUUAAUUUAUUUAUGAGAAGGAGAAUAUUAAU [JMF's solution 99] (Eterna round: R96, puzzle: Exclusion NG 3) | 29.8 nM | 28 nM | 31.1 nM |  |  | 
GCUCGUCUUGUAAUGUUUAACAUGAGGAUCACCCAUGUCACCAACGUCGGAGAUGCAGGUUCAUGUUUUAAUGUAUA [Eternabot (L2) Solution 23] (Eterna round: R97, puzzle: Sensor, turn-off variant 1) | 83.5 nM |  | 82.6 nM |  |  | 
UUAUAUAGUGUGAGGAUAUGCUGGUCCUUGGAUCAGCAGAAGGCACAUGAGGAUCACCCAUGUAGUUUAUUUUA [JL bmx4 3.01] (puzzle: Brourd's mod of Exclusion 4) |  |  |  | 26.8 nM |  | 
GGAGAGAUAUAGGAUAUGGGAGGGAGGACCGGACCAGAAGGAUAGACAUGAGGAUCACCCAUGUAGAGAUCCUC [AK-MS2ROC-r4-exclusion6-6.1] (Eterna round: R97, puzzle: Exclusion 6) | 302 nM |  | 270 nM |  |  | 
UUUAGUUCAGGAUAUGUAGAUAUUAACAUGAGGAUCACCCAUGUCGAUCCUGAAUUAACUACAGAAGGGAACAUUU [Mod of Brourd 5 - Jieux - Exclusion 5] (Eterna round: R97, puzzle: Exclusion 5) | 69.6 nM |  | 17.8 nM |  |  | 
GGGUGUGAAGGAUAUACAUGAGGAUCACCCAUGUGAGAGGAGGAGGUUGAGGAGGUUGGUAGAAGGUCAGGAGG [JR_Exclusion3_Sub011] (puzzle: Exclusion 3) |  |  |  | 120 nM |  | 
CCAUGCACGCUGCGGUCCUACAUGAGGAUCACCCAUGUGGUCUGGUGGCGUGGGUCGCCGGACUUGGCUCGUCUUGA [salish99_S_TOV1_R5_022] (Eterna round: R97, puzzle: Sensor, turn-off variant 1) | 25.6 nM |  | 24.7 nM |  |  | 
ACGAUGACAGAAAGAUGUCAAAAGACAUGAGGAUCACCCAUGUAGGAUAUGGCUACGAAAAGUAGUCAGAAGGACAUGUCAUCA [Omei Exc(NG) 3 Av1] (Eterna round: R96, puzzle: Exclusion NG 3) | 16.2 nM | 10.6 nM | 13.8 nM |  |  | 
UUCUGGACAGGAUAUGUACUUGAGCACUUGAGGAUCACCCAAGUCCUCAAGUACUCAGGCACAGAAGGGUUAAUUU [jl-ex5.4.65 ViennaUCT mod] (Eterna round: R97, puzzle: Exclusion 5) | 110 nM |  | 71.9 nM |  |  | 
UCGGCGCGAGGAUAUACGUUUGCUUUUUUGUGUCGUUGCGUACAUGAGGAUCACCCAUGUAGAAGGCGCGCCGC [Apr-15 SS2-24] (puzzle: Exclusion 2) |  |  |  | 16 nM |  | 
UUGGUUGUGGUAGGAUAUCCGUUGGAAACCUUCGGAGAAGGACCACAGUCACUGGGUCUUUGUCUGGUGGACGGUUUCGACCGU [pwkr exNG1 F6.23] (Eterna round: R96, puzzle: Exclusion NG 1) | 202 nM | 281 nM | 559 nM |  |  | 
AUAAGAAAGGCAGGAUAUUGUGCACCCUAGUGACAAGAAGGGCCAGGGUGUGCGCUCCACAUGAGGAUCACCCAUGUUAGAAAG [Berimate] (Eterna round: R96, puzzle: Exclusion NG 1) | 26.4 nM | 27 nM | 29.3 nM |  |  | 
AGUUGGCGAGGAUAUACAUGAGGAUCACCCAUGUGAGAGAUACUAGUGAGGUCGAUUGGUAGAAGGCGCUGACG [Mat - Exclusion 3 - Mod of JL D79] (puzzle: Exclusion 3) |  |  |  | 104 nM | 222 nM | 151 nM
UGAUUGUUUACCAGAUUAUACAUGAGGAUCACCCAUGUAGAUCCUACGUGCACGUUAUGCAGCUCGUCUUAUUCCCA [Sensor-V1 #73] (Eterna round: R97, puzzle: Sensor, turn-off variant 1) | 40.3 nM |  | 44.1 nM |  |  | 
UUUAAUUUUUUUUUUUUACAAGCUUUUUGCUCGUCUUAUACAUGAGGAUCACCCAUGUAAGUGGGAGAUAAAUUAUC [JMF 21] (puzzle: Sensor v3, turn-off variant 2) |  |  |  | 53.3 nM | 76.6 nM | 90.4 nM
CUUUUGUGAGGAUAUUAGUAGUAAAUAAAUAAAAUUAUUACUGAGAAGGCACAUGAGGAUCACCCAUGUUCCUU [Salish 062 v20] (Eterna round: R97, puzzle: Exclusion 4) | 63.6 nM |  | 17 nM |  |  | 
AGUACUAUGCGAGCUGACUUGCGUAGUGCAGCAGGUGUAACAUGAGGAUCACCCAUGUCCUCAUUUGCUCGUCUUAA [Mat - Sensor v3 - Turn-off var 2 - D9] (puzzle: Sensor v3, turn-off variant 2) |  |  |  | 288 nM | 240 nM | 235 nM

Sequence | apparent KD of MS2 coat protein (input ligand: FMN 200 uM) | apparent KD of MS2 coat protein [1] | apparent KD of MS2 coat protein (input ligand: none) | apparent KD of MS2 coat protein [2] | apparent KD of MS2 coat protein [3] | apparent KD of MS2 coat protein [4]
GGUGGACAUGAGGAUCACCCAUGUGAGGAUAUCGGCCGGUUCGUGGUGGCUGGCCUCUCGAGAAGGCGCAUAGU [Exclusion 1 V73] (puzzle: Exclusion 1) |  |  |  | 44.1 nM |  | 
GGCAUCGGAGGAUAUACUUAAGGUGAUGUUCGAAGCUUUCUACUUGAGGAUCACCCAAGUAGAAGGCCGAUGCC [jl-ex2.4.77 ViennaUCT mod] (Eterna round: R97, puzzle: Exclusion 2) | 7.63 nM |  | 19.6 nM |  |  | 
CACCGUUAGGGAGGAUAUCGUACAUGAGGAUCACCCAUGUAAUAAAUGAGAAUUUCGGAUGUAUGCGAGAAGGCCCAAAUCGGC [Ostracism 42 - Jieux - Exclusion NG 2] (Eterna round: R96, puzzle: Exclusion NG 2) | 36.8 nM | 35.8 nM | 48.4 nM |  |  | 
UGUUGGUACGUAGGAUAUCCACCAACAGGUGGAAGGAUAUGUACGCAGAAGGUUCGCCAACAGGCGGAGAAGGACGUGGUAACU [pwkr exNG2 2xF7 2xFMN.29] (Eterna round: R96, puzzle: Exclusion NG 2) | 34.6 nM | 73.8 nM | 169 nM |  |  | 
AUGGUUCGAUUAGGAUAUUAUAGAUUGAAUAGUAUGAUUUACAUGAGGAUCACCCAUGUUACAUUUAAGAAGGAAUCGAAUCAU [JR_ExcNG2_Sub088] (Eterna round: R96, puzzle: Exclusion NG 2) | 13.9 nM | 13.2 nM | 21.5 nM |  |  | 
UGUCAGAUGGUAGGAUAUCCGUAUCGCGUGUCCCUUUCCUAACAUGAGGAUCACCCAUGUCGGUGGGAGAAGGGCCGUAUGGUG [salish99_ExNG02_R04_037] (Eterna round: R96, puzzle: Exclusion NG 2) | 12.9 nM | 10.6 nM | 15.3 nM |  |  | 
AAUAACAGAGGAUAUACUAUUUUAUGUGUUUGUUGUUUUGAACAUGAGGAUCACCCAUGUAGAAGGCUGAUUAA [JMF 52] (puzzle: Exclusion 2) |  |  |  | 34.3 nM |  | 
UGAUCUAGCGGAGGAUAUACAUGAGGAUCACCCAUGUAGGAUCCAUGACCGUAGUCGUGGAUCGUGUAGAAGGCCGCUAGAUCU [JL ENG2 3.70] (Eterna round: R96, puzzle: Exclusion NG 2) | 13 nM | 8.14 nM | 13.1 nM |  |  | 
UUAAAUCAUGUAGGAUAUGCGUGGCGAAGCUAUGCAGAAGGACAUGAGGAUCACCCAUGUGCUUCCGUCUGCGUACAGAUGGUA [JL ENG1 1.13] (Eterna round: R96, puzzle: Exclusion NG 1) | 315 nM | 52.7 nM | 62.5 nM |  |  | 
AAAUCGGAGGAGGAUAUGGUACAGGAAAUGGUGCCAGAAGGUUUCACAUGAGGAUCACCCAUGUCAAAUAGCGA [EX6 #60] (Eterna round: R97, puzzle: Exclusion 6) | 19.1 nM |  | 27.1 nM |  |  | 
GGGUGUGAAGGAUAUACAUGAGGAUCACCCAUGUGAGAGGAGAAUGUUGAGGAGGUUGGUAGAAGGUCAGGAGG [JR_Exclusion3_Sub010] (Eterna round: R96, puzzle: Exclusion 3) | 202 nM | 105 nM | 165 nM |  |  | 
AGUUGUUGUUUCCGUUCUUACAUGAGGAUCACCCAUGUUUCUUGUCGUGCUCGCGUUGCUCGUCUGGCUGCCUGUUG [salish99_TOv1_r3_069] (Eterna round: R96, puzzle: Sensor v3, turn-off variant 1) | 47 nM | 28 nM | 46.4 nM |  |  | 
CAGUACUGAGGAUAUACAUGAGGAUCACCCAUGUGAUCUGGUGCACGCGUACGUGUACGUAGAAGGCAGUACUG [JL 3.27 m4] (Eterna round: R97, puzzle: Exclusion 3) | 1280 nM |  | 121 nM |  |  | 
GCACGACAUGAGGAUCACCCAUGUGAGGAUAUUUAGACGCCUGUGAAUGCAGCCAUUUAGAGAAGGCAUUGGGU [Eternabot (L1) Solution 99] (Eterna round: R97, puzzle: Exclusion 1) | 129 nM |  | 43.9 nM |  |  | 
CACUUGGUAGGAUAUGAAGGGAGGAACAUGAGGAUCACCCAUGUCCUGGAAUCCAGUCCGUCAGAAGGACCUGAGC [Eternabot (L1) Solution 44] (Eterna round: R97, puzzle: Exclusion 5) | 24.4 nM |  | 21.6 nM |  |  | 
ACGUACCUAGGAUAUACAUGGCCACAUGAUGCCAAGGAACAACUUGAGGAUCACCCAAGUAGAAGGAGGAAAAG [Riberace] (Eterna round: R97, puzzle: Exclusion 2) | 78.1 nM |  | 73.4 nM |  |  | 
